Reference: patent US20180155451A1 (published 2018)

Legend:
[1] = biological target: T1, FcγRIIa H (FcγRIIa, type H allotype, His at position 131), extracellular domain with C-terminal His tag (human, UniProt P12318 34-217); assay: ratio of He/Con_2aH to He/Con_2b (FcγRIIa H over FcγRIIb), SPR
T1 construct: extracellular domain; Soluble receptor expressed in FreeStyle293 cells; analyte in Biacore; also called FcgRIIa H; 2aH; not shown: C-terminal His tag
T1 sequence (looked up): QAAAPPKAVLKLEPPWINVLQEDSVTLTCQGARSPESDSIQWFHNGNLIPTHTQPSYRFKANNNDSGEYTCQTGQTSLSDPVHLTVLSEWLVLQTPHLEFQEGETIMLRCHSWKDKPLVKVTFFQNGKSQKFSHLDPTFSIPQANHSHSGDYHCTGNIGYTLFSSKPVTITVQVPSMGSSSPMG

[2] = biological target: T1, FcγRIIa H (FcγRIIa, type H allotype, …); assay: SPR (Biacore), captured antibody, FcγR as analyte
[3] = biological target: T2, FcγRIIb, extracellular domain with C-terminal His tag (human, UniProt P31994 43-217); assay: SPR (Biacore), captured antibody, FcγR as analyte
T2 construct: extracellular domain; Soluble receptor expressed in FreeStyle293 cells; analyte in Biacore; also called FcgRIIb; 2b; not shown: C-terminal His tag
T2 sequence (looked up): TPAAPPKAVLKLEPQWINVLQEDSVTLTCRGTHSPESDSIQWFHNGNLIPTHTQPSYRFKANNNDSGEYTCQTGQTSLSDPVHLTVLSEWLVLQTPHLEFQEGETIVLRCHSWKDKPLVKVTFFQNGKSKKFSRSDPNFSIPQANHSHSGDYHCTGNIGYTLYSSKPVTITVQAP

B1: GpH7-A5/GpH7-B3 variant D270_15Y/GpL16-k0 (antibody, human IgG1, kappa)
heavy 1: not shown
heavy 2: not shown
light: DIVMTQSPLSLPVTPGEPASISCQASESLVHSNRNTYLHWYLQKPGQSPQLLIYKVSNRFSGVPDRFSGSGSGTDFTLKISRVEAEDVGVYYCSQNTHVPPTFGQGTKVEIERTVAAPSVFIFPPSDEQLKSGTASVVCLLNNFYPREAKVQWKVDNALQSGNSQESVTEQDSKDSTYSLSSTLTLSKADYEKHKVYACEVTHQGLSSPVTKSFNRGEC
notes: Heterodimerized IgG1; mutation only in the GpH7-B3 chain; also called He Ab
[1]
  He_2aH/2b (IIaH/IIb): 1.6
[2]
  He/Con_2aH: 71.9 relative, GpH7-A5/GpH7-B3/GpL16-k0 = 100
[3]
  He/Con_2b: 44.9 relative, GpH7-A5/GpH7-B3/GpL16-k0 = 100

B2: GpH7-A5/GpH7-B3 variant E269_02A/GpL16-k0 (antibody, human IgG1, kappa)
heavy 1: not shown
heavy 2: not shown
light: DIVMTQSPLSLPVTPGEPASISCQASESLVHSNRNTYLHWYLQKPGQSPQLLIYKVSNRFSGVPDRFSGSGSGTDFTLKISRVEAEDVGVYYCSQNTHVPPTFGQGTKVEIERTVAAPSVFIFPPSDEQLKSGTASVVCLLNNFYPREAKVQWKVDNALQSGNSQESVTEQDSKDSTYSLSSTLTLSKADYEKHKVYACEVTHQGLSSPVTKSFNRGEC
notes: as for B1
[1]
  He_2aH/2b (IIaH/IIb): 1.56
[2]
  He/Con_2aH: 77.8 relative, GpH7-A5/GpH7-B3/GpL16-k0 = 100
[3]
  He/Con_2b: 49.9 relative, GpH7-A5/GpH7-B3/GpL16-k0 = 100

B3: GpH7-A5/GpH7-B3 variant D270_13S/GpL16-k0 (antibody, human IgG1, kappa)
heavy 1: not shown
heavy 2: not shown
light: DIVMTQSPLSLPVTPGEPASISCQASESLVHSNRNTYLHWYLQKPGQSPQLLIYKVSNRFSGVPDRFSGSGSGTDFTLKISRVEAEDVGVYYCSQNTHVPPTFGQGTKVEIERTVAAPSVFIFPPSDEQLKSGTASVVCLLNNFYPREAKVQWKVDNALQSGNSQESVTEQDSKDSTYSLSSTLTLSKADYEKHKVYACEVTHQGLSSPVTKSFNRGEC
notes: as for B1
[1]
  He_2aH/2b (IIaH/IIb): 1.61
[2]
  He/Con_2aH: 71.2 relative, GpH7-A5/GpH7-B3/GpL16-k0 = 100
[3]
  He/Con_2b: 44.2 relative, GpH7-A5/GpH7-B3/GpL16-k0 = 100

B4: GpH7-A5/GpH7-B3 variant E269_11K/GpL16-k0 (antibody, human IgG1, kappa)
heavy 1: not shown
heavy 2: not shown
light: DIVMTQSPLSLPVTPGEPASISCQASESLVHSNRNTYLHWYLQKPGQSPQLLIYKVSNRFSGVPDRFSGSGSGTDFTLKISRVEAEDVGVYYCSQNTHVPPTFGQGTKVEIERTVAAPSVFIFPPSDEQLKSGTASVVCLLNNFYPREAKVQWKVDNALQSGNSQESVTEQDSKDSTYSLSSTLTLSKADYEKHKVYACEVTHQGLSSPVTKSFNRGEC
notes: as for B1
[1]
  He_2aH/2b (IIaH/IIb): 2.87
[2]
  He/Con_2aH: 51.1 relative, GpH7-A5/GpH7-B3/GpL16-k0 = 100
[3]
  He/Con_2b: 17.8 relative, GpH7-A5/GpH7-B3/GpL16-k0 = 100

B5: GpH7-A5/GpH7-B3 variant D270_19Q/GpL16-k0 (antibody, human IgG1, kappa)
heavy 1: not shown
heavy 2: not shown
light: DIVMTQSPLSLPVTPGEPASISCQASESLVHSNRNTYLHWYLQKPGQSPQLLIYKVSNRFSGVPDRFSGSGSGTDFTLKISRVEAEDVGVYYCSQNTHVPPTFGQGTKVEIERTVAAPSVFIFPPSDEQLKSGTASVVCLLNNFYPREAKVQWKVDNALQSGNSQESVTEQDSKDSTYSLSSTLTLSKADYEKHKVYACEVTHQGLSSPVTKSFNRGEC
notes: as for B1
[1]
  He_2aH/2b (IIaH/IIb): 1.77
[2]
  He/Con_2aH: 85 relative, GpH7-A5/GpH7-B3/GpL16-k0 = 100
[3]
  He/Con_2b: 48 relative, GpH7-A5/GpH7-B3/GpL16-k0 = 100

B6: GpH7-A5/GpH7-B3 variant E269_07I/GpL16-k0 (antibody, human IgG1, kappa)
heavy 1: not shown
heavy 2: not shown
light: DIVMTQSPLSLPVTPGEPASISCQASESLVHSNRNTYLHWYLQKPGQSPQLLIYKVSNRFSGVPDRFSGSGSGTDFTLKISRVEAEDVGVYYCSQNTHVPPTFGQGTKVEIERTVAAPSVFIFPPSDEQLKSGTASVVCLLNNFYPREAKVQWKVDNALQSGNSQESVTEQDSKDSTYSLSSTLTLSKADYEKHKVYACEVTHQGLSSPVTKSFNRGEC
notes: as for B1
[1]
  He_2aH/2b (IIaH/IIb): 1.52
[2]
  He/Con_2aH: 66.6 relative, GpH7-A5/GpH7-B3/GpL16-k0 = 100
[3]
  He/Con_2b: 43.9 relative, GpH7-A5/GpH7-B3/GpL16-k0 = 100

B7: GpH7-A5/GpH7-B3 variant E269_06M/GpL16-k0 (antibody, human IgG1, kappa)
heavy 1: not shown
heavy 2: not shown
light: DIVMTQSPLSLPVTPGEPASISCQASESLVHSNRNTYLHWYLQKPGQSPQLLIYKVSNRFSGVPDRFSGSGSGTDFTLKISRVEAEDVGVYYCSQNTHVPPTFGQGTKVEIERTVAAPSVFIFPPSDEQLKSGTASVVCLLNNFYPREAKVQWKVDNALQSGNSQESVTEQDSKDSTYSLSSTLTLSKADYEKHKVYACEVTHQGLSSPVTKSFNRGEC
notes: as for B1
[1]
  He_2aH/2b (IIaH/IIb): 1.58
[2]
  He/Con_2aH: 73.6 relative, GpH7-A5/GpH7-B3/GpL16-k0 = 100
[3]
  He/Con_2b: 46.7 relative, GpH7-A5/GpH7-B3/GpL16-k0 = 100

B8: GpH7-A5/GpH7-B3 variant E269_08L/GpL16-k0 (antibody, human IgG1, kappa)
heavy 1: not shown
heavy 2: not shown
light: DIVMTQSPLSLPVTPGEPASISCQASESLVHSNRNTYLHWYLQKPGQSPQLLIYKVSNRFSGVPDRFSGSGSGTDFTLKISRVEAEDVGVYYCSQNTHVPPTFGQGTKVEIERTVAAPSVFIFPPSDEQLKSGTASVVCLLNNFYPREAKVQWKVDNALQSGNSQESVTEQDSKDSTYSLSSTLTLSKADYEKHKVYACEVTHQGLSSPVTKSFNRGEC
notes: as for B1
[1]
  He_2aH/2b (IIaH/IIb): 1.57
[2]
  He/Con_2aH: 67.4 relative, GpH7-A5/GpH7-B3/GpL16-k0 = 100
[3]
  He/Con_2b: 42.9 relative, GpH7-A5/GpH7-B3/GpL16-k0 = 100

B9: GpH7-A5/GpH7-B3 variant D270_16H/GpL16-k0 (antibody, human IgG1, kappa)
heavy 1: not shown
heavy 2: not shown
light: DIVMTQSPLSLPVTPGEPASISCQASESLVHSNRNTYLHWYLQKPGQSPQLLIYKVSNRFSGVPDRFSGSGSGTDFTLKISRVEAEDVGVYYCSQNTHVPPTFGQGTKVEIERTVAAPSVFIFPPSDEQLKSGTASVVCLLNNFYPREAKVQWKVDNALQSGNSQESVTEQDSKDSTYSLSSTLTLSKADYEKHKVYACEVTHQGLSSPVTKSFNRGEC
notes: as for B1
[1]
  He_2aH/2b (IIaH/IIb): 1.51
[2]
  He/Con_2aH: 71.5 relative, GpH7-A5/GpH7-B3/GpL16-k0 = 100
[3]
  He/Con_2b: 47.2 relative, GpH7-A5/GpH7-B3/GpL16-k0 = 100
